We go through one substance from PMC7473840, “Identification of a molecular locus for normalizing dysregulated GABA release from interneurons in the Fragile X brain” (Molecular Psychiatry, 2018).

This assay concerns the target FMRP (mouse cerebellum) (UniProt P35922). The assay is described as follows: anti-FMRP IP, Kv1.2 blot, peptide competition. To be noted: reference: no peptide (control); sites S440,S441.

Turning to “Kv1.2 (from UniProt P63141) 250 μM PhosKv436-457 (pS440/pS441) peptide added”, the other: reduction of co-IP'd Kv1.2 was determined as 75%.
